System: CD34+-derived cells
Assay: Apoptosis by cleaved caspase-3 intracellular flow cytometry and Annexin-V
Assay type: cell-based, human
Conditions: G-CSF 100 ng/ml; CH-223191 500 nM (4n fraction)
Experimental: Cells were fixed with 4% paraformaldehyde in PBS for 10 min, washed with PBS and resuspended in 0.1% saponin in HBSS (staining medium). The samples were then stained with antibodies against cytoplasmic antigens, including NMM-IIA (Sigma), NMM-IIB, phospho-NMM-IIA and caspase-3 (all from Cell Signaling Technology) for 30 min at room temperature. In some cases, cells were concurrently stained with PE anti-CD34 or anti-human CD38 for subpopulation analysis. Cells were then washed and stained with anti-rabbit or mouse secondary antibodies conjugated with Alexa 647 (Invitrogen) for 30 min, followed by analysis on FACSCalibur.

B1: G-CSF: human recombinant granulocyte colony-stimulating factor (protein, UniProt P09919 31-207, looked up)
Granulocyte …: TPLGPASSLPQSFLLKCLEQVRKIQGDGAALQEKLVSECATYKLCHPEELVLLGHSLGIPWAPLSSCPSQALQLAGCLSQLHSGLFLYQGLLQALEGISPELGPTLDTLQLDVADFATTIWQQMEELGMAPALQPTQGAMPAFASAFQRRAGGVLVASHLQSFLEVSYRVLRHLAQP
viability of untreated CD34+ and CD34− cells: improves the viability

— patent US9920295B2, “Bioreactor for isolation of rare cells and methods of use” (The Trustees of the University of Pennsylvania, priority 2012, dated 2018)
